Patent US20030165468A1, “Regulated vectors for controlling DNA hypermutability in eukaryotic cells” (priority 2002, published 2003)

B1: PMS134: dominant negative mismatch repair protein, expressed from pIRES-PMS134-TK with a C-terminal V5 tag (protein, listed as Homo sapiens)
chain: RGGSGVASMERAESSSTEPAKAIKPIDRKSVHQICSGQVVLSLSTAVKELVENSLDAGATNIDLKLKDYGVDLIEVSDNGCGVEEENFEGLTLKHHTSKIQEFADLTQVETFGFRGEALSSLCALSDVTISTCHASAKVGT
modifications: C-terminal V5 tag

Assays:
[1] = test system: cells expressing the HSV-TK gene product; experiment: Negative selection with ganciclovir of cultures containing pIRES-PMS134-TK; format: cell-based, human; conditions: HEK293 cultures with pIRES-PMS134-TK; ganciclovir for 5 days, then 10 days in growth media alone
Procedure: Once a hypermutable cell line is developed, it can be screened for to identify subclones with novel phenotypes for target discovery and/or product development. Once the subclone with a desired phenotype is identified, it is important to be able to restore the DNA stability within the host cell. In order to accomplish this, one must remove or completely suppress the expression of the mutator gene. Briefly, cultures are grown in the presence of the prodrug ganciclovir (Sigma), which kills cells expressing the HSV-TK gene product for 5 days. After 5 days, cells are grown for 10 days in growth media alone at which time greater than 95% of cells die off. Resistant clones are then picked and expanded in 10 cm petri dishes. Cells are grown for 3 weeks and then a portion is analyzed for PMS134 expression by western blot and RT-PCR. […] Analysis of cells after two months of culture have not observed re-expression of the PMS 134 gene using western or RT-PCR analysis (not shown). […] No de novo instable microsatellites are observed in the GR cells in contrast to the parental IRES-PMS134-TK line as expected.

[2] = test system: 293 cells; experiment: Microsatellite instability of endogenous loci using the BAT26 diagnostic marker; format: cell-based, human; conditions: PMS134 expressing 293 cells
Procedure: Next, selected clones expressing PMS134 are expanded and analyzed for MMR deficiency using methods as previously described. Briefly, cells containing the pIRES-PMS134-TK vector or control were measured for microsatellite instability of endogenous loci using the BAT26 diagnostic marker as described (Hoang J. M. et al. (1997) Cancer Res. 57:300-303). Cells are harvested and genomic DNA is isolated using the salting out method (Nicolaides, N. C. et al. (1991) Mol. Cell. Biol. 11:6166-6176). DNAs are diluted by limiting dilution to determine the level of sensitivity of the assay. DNAs are PCR amplified using the BAT26F: 5′-[…]-3′ (SEQ ID NO: 25) and the BAT26R: 5′-[…]-3′ (SEQ ID NO: 26) primers in buffers as described (Nicolaides, N. C. et al. (1995) Genomics 30:195-206). Briefly 1 pg to 100 ngs of DNA is amplified using the following conditions: 94° C. for 30 sec, 58° C. for 30 sec, 72° C. for 30 sec for 30 cycles. PCR reactions are electrophoresed on 12% polyacrylamide TBE gels (Novex) or 4% agarose gels and stained with ethidium bromide.
To measure for microsatellite stability in 293 cells, DNAs were amplified using the reaction conditions above.

Molecule	cells die off [1]	effect on mismatch repair (MMR) ([2]; biochemical and genetic manifestations of MMR deficiency)	microsatellite instability (altered BAT26 alleles) ([2]; no altered alleles in MMR-proficient control cells)
Nc1nc(O)c2ncn(COC(CO)CO)c2n1 [ganciclovir]	greater than 95%	–	–
B1	–	robust dominant negative effect	a number of alterations
